# Measurements reported in patent US20120058906A1 (published 2012).
# T1: rHuman Erythropoietin R/Fc Chimera, CF (R&D Systems Cat#963-ER) (human, UniProt P19235 25-250)
# T1 construct: Bought Fc chimera; also called EPO R/Fc; EPOR; Fc part of the bought chimera not given
# T1 sequence: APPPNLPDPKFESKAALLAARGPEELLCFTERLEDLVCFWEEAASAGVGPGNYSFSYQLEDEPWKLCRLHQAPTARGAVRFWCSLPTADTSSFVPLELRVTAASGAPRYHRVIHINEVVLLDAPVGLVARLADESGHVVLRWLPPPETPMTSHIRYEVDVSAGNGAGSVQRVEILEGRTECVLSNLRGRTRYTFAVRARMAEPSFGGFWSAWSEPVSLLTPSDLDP
# T2: rHuman Erythropoietin R/Fc Chimera, CF (R&D Systems Cat#963-ER) (human, UniProt P19235 25-250)
# T2 construct: Bought Fc chimera; also called EPO R/Fc; Epo R; not shown: Fc of the bought chimera
# T2 sequence: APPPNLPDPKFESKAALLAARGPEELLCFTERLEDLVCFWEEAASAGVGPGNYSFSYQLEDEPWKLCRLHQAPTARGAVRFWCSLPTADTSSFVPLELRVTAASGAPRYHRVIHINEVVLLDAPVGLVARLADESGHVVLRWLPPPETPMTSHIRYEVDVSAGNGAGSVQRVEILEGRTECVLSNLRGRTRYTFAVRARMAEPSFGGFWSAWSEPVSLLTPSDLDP
# How the values were obtained:
# [1] = target: T3, rHuman P-Cadherin/Fc Chimera, CF (R&D Systems Cat#861-PC) (human, UniProt P22223 108-654); test: MSD ECL titration, Fab 0.6 nM, blank 226
# T3 construct: Bought Fc chimera; Fc part of the bought chimera not given
# [2] = target: T1, rHuman Erythropoietin R/Fc Chimera, CF …; test: MSD ECL titration, Fab 0.6 nM, blank 226
# [3] = target: T4, rHuman EGF R/Fc Chimera, CF (R&D Systems Cat#344-ER) (human, UniProt P00533 25-645); test: MSD ECL titration, Fab 0.6 nM, blank 226
# T4 construct: Bought Fc chimera; Fc part of the bought chimera not given
# [4] = target: T5, rHuman Notch-1/Fc Chimera, CF (R&D Systems Cat#3647-TK) (human, UniProt P46531 19-526); test: MSD ECL titration, Fab 0.6 nM, blank 226
# T5 construct: Bought Fc chimera; Fc part of the bought chimera not given
# [5] = target: T6, rHuman ErbB2/Fc Chimera, CF (R&D Systems Cat#1129-ER) (human, UniProt P04626 23-652); test: MSD ECL titration, Fab 0.6 nM, blank 226
# T6 construct: Bought Fc chimera; also called HER2/neu; Fc part of the bought chimera not given
# [6] = target: T7, rHuman IGF-1 sR (insulin-like growth factor-1 soluble receptor), CF (R&D Systems Cat#391-GR) (human, UniProt P08069 31-932); test: MSD ECL titration, Fab 0.6 nM, blank 226
# T7 construct: Bought soluble receptor; also called IGF-R1
# [7] = target: T3, rHuman P-Cadherin/Fc Chimera, CF (R&D …); test: MSD ECL titration, Fab 37.2 nM, blank 199
# [8] = target: T1, rHuman Erythropoietin R/Fc Chimera, CF …; test: MSD ECL titration, Fab 37.2 nM, blank 199
# [9] = target: T4, rHuman EGF R/Fc Chimera, CF (R&D …); test: MSD ECL titration, Fab 37.2 nM, blank 199
# [10] = target: T8, Recombinant Human DLL4 (R&D Systems Cat#1506-D4/CF) (human, UniProt Q9NR61 27-524); test: MSD ECL titration, Fab 37.2 nM, blank 199
# T8 construct: Bought recombinant protein; also called rHuman DLL4; delta-like protein 4
# [11] = target: T5, rHuman Notch-1/Fc Chimera, CF (R&D …); test: MSD ECL titration, Fab 37.2 nM, blank 199
# [12] = target: T9, rHuman CD44/Fc Chimera, CF (R&D Systems Cat#3660-CD) (human, UniProt P16070 21-220); test: MSD ECL titration, Fab 37.2 nM, blank 199
# T9 construct: Bought Fc chimera; Fc part of the bought chimera not given
# [13] = target: T6, rHuman ErbB2/Fc Chimera, CF (R&D …); test: MSD ECL titration, Fab 37.2 nM, blank 199
# [14] = target: T10, rHuman HGF R/c-MET/Fc Chimera, CF (R&D Systems Cat#358-MT/CF) (human, UniProt P08581 25-932); test: MSD ECL titration, Fab 37.2 nM, blank 199
# T10 construct: Bought Fc chimera; also called HGF R/Fc; Fc part of the bought chimera not given
# [15] = target: T7, rHuman IGF-1 sR (insulin-like growth …); test: MSD ECL titration, Fab 37.2 nM, blank 199
# [16] = target: T11, Recombinant Human DLL4 (R&D Systems Cat#1506-D4/CF) (human, UniProt Q9NR61 27-524); test: ECL (MSD multi-spot), antigen on plate, Fab 50 nM
# T11 construct: Bought recombinant protein; also called delta-like protein 4
# [17] = target: T12, rHuman ErbB2/Fc Chimera, CF (R&D Systems Cat#1129-ER) (human, UniProt P04626 23-652); test: ECL (MSD multi-spot), antigen on plate, Fab 50 nM
# T12 construct: Bought Fc chimera; also called HER2/neu; not shown: Fc of the bought chimera
# [18] = target: T13, rHuman CD44/Fc Chimera, CF (R&D Systems Cat#3660-CD) (human, UniProt P16070 21-220); test: ECL (MSD multi-spot), antigen on plate, Fab 50 nM
# T13 construct: Bought Fc chimera; not shown: Fc of the bought chimera
# [19] = target: T2, rHuman Erythropoietin R/Fc Chimera, CF …; test: ECL (MSD multi-spot), antigen on plate, Fab 50 nM
# [20] = target: T14, rHuman HGF R/c-MET/Fc Chimera, CF (R&D Systems Cat#358-MT/CF) (human, UniProt P08581 25-932); test: ECL (MSD multi-spot), antigen on plate, Fab 50 nM
# T14 construct: Bought Fc chimera; also called HGF R/Fc; not shown: Fc of the bought chimera
# [21] = target: T15, rHuman Notch-1/Fc Chimera, CF (R&D Systems Cat#3647-TK) (human, UniProt P46531 19-526); test: ECL (MSD multi-spot), antigen on plate, Fab 50 nM
# T15 construct: Bought Fc chimera; not shown: Fc of the bought chimera
# 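Further: blank spot per well as comparator with Hit at signal to blank ratio of 4 or more.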
binder,measurement,setting,value
"Fab VH1-46_IGHD6-6*01_IGHJ1*01 & L6_IGKJ1*01 (Fab, V domains shown, Expressed in E. coli as Fab: heavy chain with CH1 plus Flag and His tags from Plasmid A, kappa light chain constant region from Plasmid C; also called Fab No. 1) VH: QVQLVQSGAEVKKPGASVKVSCKASGYTFTSYYMHWVRQAPGQGLEWMGIINPSGGSTSYAQKFQGRVTMTRDTSTSTVYMELSSLRSEDTAVYYCAREEYSSSSAEYFQHWGQGTLVTVSS VL: not shown",ECL signal,[1],321
same,ECL signal,[2],337
same,ECL signal,[3],309
same,ECL signal,[4],337
same,ECL signal,[5],215
same,ECL signal,[6],313
same,ECL signal,[7],649
same,ECL signal,[8],315
same,ECL signal,[9],228
same,ECL signal,[10],16700
same,ECL signal,[11],402
same,ECL signal,[12],356
same,ECL signal,[13],384
same,ECL signal,[14],207
same,ECL signal,[15],295
"Fab VH1-46_IGHD6-6*01_IGHJ1*01_S102A_S103P_S104F & L6_IGKJ1*01_S30N (Fab, V domains shown, Fab) VH: QVQLVQSGAEVKKPGASVKVSCKASGYTFTSYYMHWVRQAPGQGLEWMGIINPSGGSTSYAQKFQGRVTMTRDTSTSTVYMELSSLRSEDTAVYYCAREEYAPFSAEYFQHWGQGTLVTVSS VL: EIVLTQSPATLSLSPGERATLSCRASQSVNSYLAWYQQKPGQAPRLLIYDASNRATGIPARFSGSGSGTDFTLTISSLEPEDFAVYYCQQRSNWPPWTFGQGTKVEIKR",ECL signal,[16],37200 ECL signal
same,ECL signal,[17],395 ECL signal
same,ECL signal,[18],271 ECL signal
same,ECL signal,[19],500 ECL signal
same,ECL signal,[20],135 ECL signal
same,ECL signal,[21],279 ECL signal
